Tested on: MS2 coat protein
Experiment: apparent KD of MS2 coat protein; designed switch direction (-1 OFF switch, 1 ON switch): -1; higher = weaker reporter binding
Summary of the method: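 Each step of the titration lasted 0.8–1.5 h at the lowest concentration and 10–20 min at the highest. The protein, SNAP-549-labelled MS2 coat protein, went from 0.7 or 1.5 nM doubling to 3 µM over RNA switches transcribed on Illumina chips by stalled E. coli RNA polymerase. Normalised cluster fluorescence was curve-fitted, and the per-design median over clusters is given as apparent KD.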

[1] = Eterna round: R95, input ligand: microRNA oligo, concentration not stated
[2] = Eterna round: R95, input ligand: FMN 200 uM
[3] = Eterna round: R95, input ligand: none
[4] = input ligand: microRNA oligo, concentration not stated

Sequence | apparent KD of MS2 coat protein (input ligand: FMN 200 uM) | apparent KD of MS2 coat protein (input ligand: none) | apparent KD of MS2 coat protein [1] | other results
GAUCAUGCAGGAUAUACAUUAACCAUGAAAACAUGGUUGUCACAUGAGGAUCACCCAUGUAGAAGGGCAUGAUC [Omei Ex2 A6] (Eterna round: R97, puzzle: Exclusion 2) | 37.2 nM | 23.5 nM | – | –
GCCGUACAUGAGGAUCACCCAUGUCAGGAUAUUUAGCACUCGGAGUUCCCGAGAGGUCAAAGAAGGGACAUUGC [EX1 C.17] (Eterna round: R97, puzzle: Exclusion 1) | 21.6 nM | 17.4 nM | – | –
AAUAACAGAGGAUAUACUGUUUUAUGUGUUUGUUAUUUUAAACAUGAGGAUCACCCAUGUAGAAGGCUGAAUAA [JMF 15] (puzzle: Exclusion 2) | – | – | 19.8 nM | –
CAAAAGCUAGGAUAUUGAGGUGGGCACAUGAGGAUCACCCAUGUGGACCUCGAGCCUACGCAAGAAGGAGUAAAAU [Rioren] (puzzle: Exclusion 5) | – | – | 13.1 nM | apparent KD of MS2 coat protein [2]: 18 nM; apparent KD of MS2 coat protein [3]: 17 nM
UUCGGCGGAGGAUAUACAGUUUUUUGUUGAAUCGGCGGGAAACAUGAGGAUCACCCAUGUAGAAGGUUGUUGAA [-18.7, -16.7 kcal, A 27%] (Eterna round: R97, puzzle: Exclusion 2) | 63.3 nM | 78 nM | – | –
AAGGAUAGAGGAUAUACAUAGAUACAGAUUCAUGUAGACCUACAUGAGGAUCACCCAUGUAGAAGGCUAUCCUA [Fiskers Ex 2 - 11] (puzzle: Exclusion 2) | – | – | 16 nM | –
CUGUACUGAGGAUAUACAUGAGGAUCACCCAUGUUCCAAGGCUAGGAAACUAGCAAAGGUAGAAGGCAGUACAG [Mat - Exclusion 3 - Eli Mod - D67] (Eterna round: R97, puzzle: Exclusion 3) | 215 nM | 17.8 nM | – | –
AGGUGUCUCUGGAAACAUGAGGAUCACCCAUGUUGAGUUAGCGAGGAUAUCGGUAACCAUUGUUAUGAGAAGGCGCAAACCAGA [Ex NG3 #39] (Eterna round: R96, puzzle: Exclusion NG 3) | 14.8 nM | 25.4 nM | – | apparent KD of MS2 coat protein [4]: 18.3 nM
CUAGCGAUUGUAGGAUAUCGGACUGUUUCAGUCUGAGAAGGACAUGAGGAUCACCCAUGUGGAGGAUCGUGAGAUCCACGCUAG [JL ENG1 3.81] (Eterna round: R96, puzzle: Exclusion NG 1) | 136 nM | 34.5 nM | – | apparent KD of MS2 coat protein [4]: 24.6 nM
AAAAAACAAGGAUAUACGUAUGAGGAUUGUCUUAAUUUUUGACAUGAGGAUCACCCAUGUAGAAGGUGUUAAAA [JR_Exclusion2_Sub015] (puzzle: Exclusion 2) | – | – | 94.9 nM | –
GUUCAACAUGAGGAUCACCCAUGUCAGGAUAUGCGAAUUUCAUCAAAAGAUGAAAUUUGCAGAAGGGACUGAAC [Omei Ex1 A30] (Eterna round: R97, puzzle: Exclusion 1) | 30.5 nM | 27.2 nM | – | –
AGAUGGCGAGGAUAUACAUGAGGAUCACCCAUGUGAAGAUAUAAAGUGAGGAAGAAAAGUAGAAGGCGCUGUCA [Mat - Exclusion 3 - Mod of Salish D25] (puzzle: Exclusion 3) | – | – | 48.8 nM | apparent KD of MS2 coat protein [2]: 225 nM; apparent KD of MS2 coat protein [3]: 63.7 nM
AGAUCGAGUGUGAGGAUAUUGACCGGACGACCCAUCGAGAAGGCACAUGAGGAUCACCCAUGUGAUUCGGUUCA [Brourd's EX4 #57] (Eterna round: R97, puzzle: Brourd's mod of Exclusion 4) | 27.1 nM | 15.4 nM | – | –
AAAUGCAAGUAAAGAUUCUACAUGAGGAUCACCCAUGUGCUCGUCUUAUAAAGUACUAUCACGAAAGUGAUAGUACA [Sensor 3, v1 - 35] (puzzle: Sensor v3, turn-off variant 1) | – | – | 100 nM | apparent KD of MS2 coat protein [2]: 14.2 nM; apparent KD of MS2 coat protein [3]: 14.2 nM
UUUGAUUGCACAGGAUAUUGUCAUUUGAGUUGUCAAGAAGGGUGUACAUGAGGAUCACCCAUGUUAUGCUUUCCUCGCUCACUU [JR_ExcNG1_Sub009] (Eterna round: R96, puzzle: Exclusion NG 1) | 15.5 nM | 20 nM | – | apparent KD of MS2 coat protein [4]: 12.8 nM
UGAUCUAGCGGAGGAUAUACAUGAGGAUCACCCAUGUAGAUAUCAUGACCGUAGUCGUGUAUCGUGUAGAAGGCCGCUAGAUCU [JL ENG2 3.69] (Eterna round: R96, puzzle: Exclusion NG 2) | – | – | – | apparent KD of MS2 coat protein [4]: 12.7 nM
AAGAUGUCAGGAUAUUAGUAGUAAAUGAAUAAAAUUAUUACUGAGAAGGGACAUGAGGAUCACCCAUGUGUCUU [Mat - Exclusion 4 - Eli Mod - D11] (Eterna round: R97, puzzle: Exclusion 4) | 80.2 nM | 19.8 nM | – | –
GUUAGUUAAGGAUAUACUGGGAGCUGCGGCGUCUCGCCGCAACAUGAGGAUCACCCAUGUAGAAGGUGGCCAUU [JL ViennaUCT Enbibi mod 4] (puzzle: Exclusion 2) | – | – | 640 nM | –
